# In article PMC6021111, “Murine leukemia virus p12 tethers the capsid-containing pre-integration complex to chromatin by binding directly to host nucleosomes in mitosis” (PLoS Pathogens, 2018):
# B1: unnamed (parent)
# chain 1: PALTPSLGAKPKPQVLSDSGGPLIDLLTEDPPPYRDPRPPPSDRDGNGGEATPAGEAPDPSPMASRLRGRREPPVADSTTSQAF
# chain 2: MAQISSNSGFKECPSSHPEPTRAKDVDKEEALQMEAEALAKLQKDRQVTDNQRGFELSSSTRKKAQVYNKQDYDLMVFPESDSQKRALDIDVEKLTQAELEKLLLDDSFETKKTPVLPVTPILSPSFSAQLYFRPTIQRGQWPPGLPGPSTYALPSIYPSTYSKQAAFQNGFNPRMPTFPSTEPIYLSLPGQSPYFSYPLTPATPFHPQGSLPIYRPVVSTDMAKLFDKIASTSEFLKNGKARTDLEITDSKVSNLQVSPKSEDISKFDWLDLDPLSKPKVDNVEVLDHEEEKNVSSLLAKDPWDAVLLEERSTANCHLERKVNGKSLSVATVTRSQSLNIRTTQLAKAQGHISQKDPNGTSSLPTGSSLLQEVEVQNEEMAAFCRSITKLKTKFPYTNHRTNPGYLLSPVTAQRNICGENASVKVSIDIEGFQLPVTFTCDVSSTVEIIIMQALCWVHDDLNQVDVGSYVLKVCGQEEVLQNNHCLGSHEHIQNCRKWDTEIRLQLLTFSAMCQNLARTAEDDETPVDLNKHLYQIEKPCKEAMTRHPVEELLDSYHNQVELALQIENQHRAVDQVIKAVRKICSALDGVETLAITESVKKLKRAVNLPRSKTADVTSLFGGEDTSRSSTRGSLNPENPVQVSINQLTAAIYDLLRLHANSGRSPTDCAQSSKSVKEAWTTTEQLQFTIFAAHGISSNWVSNYEKYYLICSLSHNGKDLFKPIQSKKVGTYKNFFYLIKWDELIIFPIQISQLPLESVLHLTLFGILNQSSGSSPDSNKQRKGPEALGKVSLPLFDFKRFLTCGTKLLYLWTSSHTNSVPGTVTKKGYVMERIVLQVDFPSPAFDIIYTTPQVDRSIIQQHNLETLENDIKGKLLDILHKDSSLGLSKEDKAFLWEKRYYCFKHPNCLPKILASAPNWKWVNLAKTYSLLHQWPALYPLIALELLDSKFADQEVRSLAVTWIEAISDDELTDLLPQFVQALKYEIYLNSSLVQFLLSRALGNIQIAHNLYWLLKDALHDVQFSTRYEHVLGALLSVGGKRLREELLKQTKLVQLLGGVAEKVRQASGSARQVVLQRSMERVQSFFQKNKCRLPLKPSLVAKELNIKSCSFFSSNAVPLKVTMVNADPMGEEINVMFKVGEDLRQDMLALQMIKIMDKIWLKEGLDLRMVIFKCLSTGRDRGMVELVPASDTLRKIQVEYGVTGSFKDKPLAEWLRKYNPSEEEYEKASENFIYSCAGCCVATYVLGICDRHNDNIMLRSTGHMFHIDFGKFLGHAQMFGSFKRDRAPFVLTSDMAYVINGGEKPTIRFQLFVDLCCQAYNLIRKQTNLFLNLLSLMIPSGLPELTSIQDLKYVRDALQPQTTDAEATIFFTRLIESSLGSIATKFNFFIHNLAQLRFSGLPSNDEPILSFSPKTYSFRQDGRIKEVSVFTYHKKYNPDKHYIYVVRILREGQIEPSFVFRTFDEFQELHNKLSIIFPLWKLPGFPNRMVLGRTHIKDVAAKRKIELNSYLQSLMNASTDVAECDLVCTFFHPLLRDEKAEGIARSADAGSFSPTPGQIGGAVKLSISYRNGTLFIMVMHIKDLVTEDGADPNPYVKTYLLPDNHKTSKRKTKISRKTRNPTFNEMLVYSGYSKETLRQRELQLSVLSAESLRENFFLGGVTLPLKDFNLSKETVKWYQLTAATYL
# B2: unnamed (parent)
# chain 1: B1 chain 1
# chain 2: MLNMWKVRELVDKATNVVMNYSEIESKVREATNDDPWGPSGQLMGEIAKATFMYEQFPELMNMLWSRMLKDNKKNWRRVYKSLLLLAYLIRNGSERVVTSAREHIYDLRSLENYHFVDEHGKDQGINIRQKVKELVEFAQDDDRLREERKKAKKNKDKYVGVSSDSVGGFRYSERYDPEPKSKWDEEWDKNKSAFPFSDKLGELSDKIGSTIDDTISKFRRKDREDSPERCSDSDEEKKARRGRSPKGEFKDEEETVTTKHIHITQATETTTTRHKRTANPSKTIDLGAAAHYTGDKASPDQNASTHTPQSSVKTSVPSSKSSGDLVDLFDGTSQSTGGSADLFGGFADFGSAAASGSFPSQVTATSGNGDFGDWSAFNQAPSGPVASSGEFFGSASQPAVELVSGSQSALGPPPAASNSSDLFDLMGSSQATMTSSQSMNFSMMSTNTVGLGLPMSRSQNTDMVQKSVSKTLPSTWSDPSVNISLDNLLPGMQPSKPQQPSLNTMIQQQNMQQPMNVMTQSFGAVNLSSPSNMLPVRPQTNALIGGPMPMSMPNVMTGTMGMAPLGNTPMMNQSMMGMNMNIGMSAAGMGLTGTMGMGMPNIAMTSGTVQPKQDAFANFANFSK
# B3: unnamed (parent)
# chain 1: B1 chain 1
# chain 2: MAQILPIRFQEHLQLQNLGINPANIGFSTLTMESDKFICIREKVGEQAQVVIIDMNDPSNPIRRPISADSAIMNPASKVIALKAGKTLQIFNIEMKSKMKAHTMTDDVTFWKWISLNTVALVTDNAVYHWSMEGESQPVKMFDRHSSLAGCQIINYRTDAKQKWLLLTGISAQQNRVVGAMQLYSVDRKVSQPIEGHAASFAQFKMEGNAEESTLFCFAVRGQAGGKLHIIEVGTPPTGNQPFPKKAVDVFFPPEAQNDFPVAMQISEKHDVVFLITKYGYIHLYDLETGTCIYMNRISGETIFVTAPHEATAGIIGVNRKGQVLSVCVEEENIIPYITNVLQNPDLALRMAVRNNLAGAEELFARKFNALFAQGNYSEAAKVAANAPKGILRTPDTIRRFQSVPAQPGQTSPLLQYFGILLDQGQLNKYESLELCRPVLQQGRKQLLEKWLKEDKLECSEELGDLVKSVDPTLALSVYLRANVPNKVIQCFAETGQVQKIVLYAKKVGYTPDWIFLLRNVMRISPDQGQQFAQMLVQDEEPLADITQIVDVFMEYNLIQQCTAFLLDALKNNRPSEGPLQTRLLEMNLMHAPQVADAILGNQMFTHYDRAHIAQLCEKAGLLQRALEHFTDLYDIKRAVVHTHLLNPEWLVNYFGSLSVEDSLECLRAMLSANIRQNLQICVQVASKYHEQLSTQSLIELFESFKSFEGLFYFLGSIVNFSQDPDVHFKYIQAACKTGQIKEVERICRESNCYDPERVKNFLKEAKLTDQLPLIIVCDRFDFVHDLVLYLYRNNLQKYIEIYVQKVNPSRLPVVIGGLLDVDCSEDVIKNLILVVRGQFSTDELVAEVEKRNRLKLLLPWLEARIHEGCEEPATHNALAKIYIDSNNNPERFLRENPYYDSRVVGKYCEKRDPHLACVAYERGQCDLELINVCNENSLFKSLSRYLVRRKDPELWGSVLLESNPYRRPLIDQVVQTALSETQDPEEVSVTVKAFMTADLPNELIELLEKIVLDNSVFSEHRNLQNLLILTAIKADRTRVMEYINRLDNYDAPDIANIAISNELFEEAFAIFRKFDVNTSAVQVLIEHIGNLDRAYEFAERCNEPAVWSQLAKAQLQKGMVKEAIDSYIKADDPSSYMEVVQAANTSGNWEELVKYLQMARKKARESYVETELIFALAKTNRLAELEEFINGPNNAHIQQVGDRCYDEKMYDAAKLLYNNVSNFGRLASTLVHLGEYQAAVDGARKANSTRTWKEVCFACVDGKEFRLAQMCGLHIVVHADELEELINYYQDRGYFEELITMLEAALGLERAHMGMFTELAILYSKFKPQKMREHLELFWSRVNIPKVLRAAEQAHLWAELVFLYDKYEEYDNAIITMMNHPTDAWKEGQFKDIITKVANVELYYRAIQFYLEFKPLLLNDLLMVLSPRLDHTRAVNYFSKVKQLPLVKPYLRSVQNHNNKSVNESLNNLFITEEDYQALRTSIDAYDNFDNISLAQRLEKHELIEFRRIAAYLFKGNNRWKQSVELCKKDSLYKDAMQYASESKDTELAEELLQWFLQEEKRECFGACLFTCYDLLRPDVVLETAWRHNIMDFAMPYFIQVMKEYLTKVDKLDASESLRKEEEQATETQPIVYGQPQLMLTAGPSVAVPPQAPFGYGYTAPPYGQPQPGFGYSM
# B4: unnamed (parent)
# chain 1: B1 chain 1
# chain 2: MAELDPFGAPAGAPGGPALGNGVAGAGEEDPAAAFLAQQESEIAGIENDEAFAILDGGAPGPQPHGEPPGGPDAVDGVMNGEYYQESNGPTDSYAAISQVDRLQSEPESIRKWREEQMERLEALDANSRKQEAEWKEKAIKELEEWYARQDEQLQKTKANNRVADEAFYKQPFADVIGYVTNINHPCYSLEQAAEEAFVNDIDESSPGTEWERVARLCDFNPKSSKQAKDVSRMRSVLISLKQAPLVH
# Variants of: B1
# Experiment: SILAC-MS of GST pull-down
# Conditions: with partner chain of the complex shown; mitotic 293T cell lysates; replicate R1
row,Variant,screen value (SDs from the mean)
1,chain 1 S65A R66A L67A R68A G69A,1.4

# Same assay, conditions: with partner chain of the complex shown; mitotic 293T cell lysates; replicate R2
row,Variant,screen value (SDs from the mean)
1,chain 1 S65A R66A L67A R68A G69A,1.4

# Variants of: B2
# Experiment: SILAC-MS of GST pull-down
# Conditions: with partner chain of the complex shown; mitotic 293T cell lysates; replicate R1
row,Variant,screen value (SDs from the mean)
1,chain 1 S65A R66A L67A R68A G69A,1.4

# Same assay, conditions: with partner chain of the complex shown; mitotic 293T cell lysates; replicate R2
row,Variant,screen value (SDs from the mean)
1,chain 1 S65A R66A L67A R68A G69A,3.3

# Variants of: B3
# Experiment: SILAC-MS of GST pull-down
# Conditions: with partner chain of the complex shown; mitotic 293T cell lysates; replicate R1
row,Variant,screen value (SDs from the mean)
1,chain 1 S65A R66A L67A R68A G69A,1

# Same assay, conditions: with partner chain of the complex shown; mitotic 293T cell lysates; replicate R2
row,Variant,screen value (SDs from the mean)
1,chain 1 S65A R66A L67A R68A G69A,2.3

# Variants of: B4
# Experiment: SILAC-MS of GST pull-down
# Conditions: with partner chain of the complex shown; mitotic 293T cell lysates; replicate R2
row,Variant,screen value (SDs from the mean)
1,chain 1 S65A R66A L67A R68A G69A,1.4
